What was measured:
[1] = target: human AR fragment coding for the amino acids 325 to 919 (AR2) (human) (UniProt P10275); experiment: cell-based or functional assay
[2] = target: T1, human androgen receptor, complete (expression vector pSG5AR) (human, UniProt P10275 1-920, 35S-methionine-labeled in the pull-down of Example 4 (in vitro translated, T7 TNT reticulocyte lysate)); experiment: GST pull-down of 35S-labelled AR; binding ratio against GST-empty, corrected for the protein amounts by Western blot, Exp. 1
T1 construct: mature; also called complete AR; 35S-methionine-labeled androgen receptor
T1 sequence (looked up): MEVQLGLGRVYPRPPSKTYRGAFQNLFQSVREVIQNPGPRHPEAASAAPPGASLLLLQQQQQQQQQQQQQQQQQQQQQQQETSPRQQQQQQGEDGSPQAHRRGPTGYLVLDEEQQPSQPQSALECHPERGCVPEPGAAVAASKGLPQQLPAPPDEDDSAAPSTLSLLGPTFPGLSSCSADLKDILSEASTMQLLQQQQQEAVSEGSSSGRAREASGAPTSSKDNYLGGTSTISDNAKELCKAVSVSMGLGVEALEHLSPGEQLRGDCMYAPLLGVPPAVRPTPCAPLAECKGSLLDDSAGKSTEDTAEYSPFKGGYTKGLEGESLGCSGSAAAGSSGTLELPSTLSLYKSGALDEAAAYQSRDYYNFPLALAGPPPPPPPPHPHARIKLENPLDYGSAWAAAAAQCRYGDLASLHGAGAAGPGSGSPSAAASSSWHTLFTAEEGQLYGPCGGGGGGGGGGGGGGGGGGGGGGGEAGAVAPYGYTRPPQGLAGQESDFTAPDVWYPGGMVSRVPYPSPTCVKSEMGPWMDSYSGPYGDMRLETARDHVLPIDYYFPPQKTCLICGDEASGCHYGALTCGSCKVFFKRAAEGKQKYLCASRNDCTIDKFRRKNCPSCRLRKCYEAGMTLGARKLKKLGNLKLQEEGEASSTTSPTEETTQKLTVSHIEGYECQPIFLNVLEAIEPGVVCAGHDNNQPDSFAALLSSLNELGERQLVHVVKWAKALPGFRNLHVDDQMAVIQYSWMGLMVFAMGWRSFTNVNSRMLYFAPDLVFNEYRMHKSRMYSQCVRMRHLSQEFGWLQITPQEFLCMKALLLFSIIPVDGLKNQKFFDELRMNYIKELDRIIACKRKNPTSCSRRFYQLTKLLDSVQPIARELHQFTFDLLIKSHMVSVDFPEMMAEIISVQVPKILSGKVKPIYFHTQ
Description: (§1) A GST pull-down experiment is characterized by an experimental procedure, which allows binding of an in vitro expressed GST fusion protein to a similar in vitro expressed and radioactively labeled protein, subsequent separation from non-interacting proteins and detection and identification of the bound protein as a measure of the binding.

[3] = target: T1, human androgen receptor, complete …; experiment: GST pull-down of 35S-labelled AR; binding ratio against GST-empty, corrected for the protein amounts by Western blot, Exp. 3
Description: as §1

[4] = target: T1, human androgen receptor, complete …; experiment: GST pull-down of 35S-labelled AR; binding ratio against GST-empty, corrected for the protein amounts by Western blot, Exp. 2
Description: as §1

[5] = target: T1, human androgen receptor, complete …; experiment: GST pull-down of 35S-labelled AR; binding ratio against GST-empty, corrected for the protein amounts by Western blot, Exp. 4
Description: as §1

[6] = target: T1, human androgen receptor, complete …; experiment: mammal hybrid test, VP16 fusion, luciferase reporter in PC3 cells

With “two-hybrid clone with an insert comprising 327 base pairs coding for part of the ORF of KIAA1380 (ARAP3) (from UniProt Q15652 1915-2023)” the yeast-2-hybrid screen with and without 10^-6 mol DHT; lacZ-positive clones (β-galactosidase assay) [1] was 40 times.

B1: GST-ARAP3: ARAP3 fragment (AS 1735 to 1840 of Seq. ID No. 14) as a GST fusion protein (vector pGEX-KG) (other)
chain: LDAMHTLREKYGIKSHCHCTNKQNLQVGNFPTMNGVSQVLQNVLNHSNKISLCMPESQQQNTPPKSEKNGGSSPESDVGTDNKLTPPESQSPLHWLADLAEQKARE
notes: also called ARAP3 fusion protein; GST-ARAP3 spherical particles; not shown: glutathione S-transferase (GST) tag of the vector pGEX-KG (Pharmacia)
In the case of B1, the “Ratio GST-ARAP3/GST-empty” value [2] is reported as 26.5 Ratio, the “Ratio GST-ARAP3/GST-empty” value [3] is reported as > 100 Ratio and the “Ratio GST-ARAP3/GST-empty” value [4] is reported as 1120 Ratio. The “Ratio GST-ARAP3/GST-empty” value [5] was > 100 Ratio.

B2: ARAP3 fragment (AS 1430-1539 of Seq. ID No. 20) as fusion protein with VP16 (CMX-VP16-ARAP3-III) (other)
chain: DLLDAMHTLREKYGIKSHCHCTNKQNLQVGNFPTMNGVSQVLQNVLNHSNKISLCMPESQQQNTPPKSEKNGGSSPESDVGTDNKLTPPESQSPLHWLADLAEQKAREEK
notes: Expressed in transfected human PC3 cells; also called ID No. 20; not shown: VP16 fusion partner from the vector CMX-VP16
B2: binds [6].

Reference: patent publication US20030064396A1 (published 2003)
